The record followed here is US20250026842A1.

The target in this experiment is pre-anti-drug antibodies (pre-ADAs) in individual serum samples taken from healthy humans. Nature of the experiment: ELISA, coated sdAb, 40 healthy donor sera (1:5), anti-human lambda chain-HRP, OD415.

B1: P2-1 (protein)
VH: HHHHHHGGGGSEVQLLESGGGLVQPGGSLRLSCAASGFTFAHETMVWVRQAPGKGLEWVSHIPPDGQDPFYADSVKGRFTISRDNSKNTLYLQMNSLRAEDTAVYHCALLPKRGPWFDYWGQGTLVTVSS
As for B1, the percent of serum samples with detectable sdAb-reactive pre-ADAs came to 57.5%.

B2: P2-2 (protein)
VH: HHHHHHGGGGSEVQLLESGGGLVQPGGSLRLSCAASGFTFAHETMVWVRQAPGKGLEWVSHIPPDGQDPFYADSVKGRFTISRDNSKNTLYLQMNSLRAEDTAVYHCALLPKRGPWFDYWGQGTLVTVSSA
As for B2, the percent of serum samples with detectable sdAb-reactive pre-ADAs came out at 12.5%.
